In the assay the target is TPP-2305, hTNFRSF12 amino acids a28-80 (recombinant human TWEAKR protein) (human) (UniProt Q9NP84). The assay can be described thus: SPR (Biacore T100), antibody captured, TWEAKR TPP-2305 as analyte, 1:1 model. A general note: SPR reads the build-up and loss of mass on a sensor chip optically.

This is an account of results in patent US20160346402A1.

B1: ITEM-1 (antibody, from another filing, V domains shown)
VH: EVKLEESGGGLVQPGGSMKLSCVASGFSFSNYWMNWVRQSPEKGLEWVAEIRLKSNNYATHYAESVKGRFTISRHDSKSSVYLQMNNLRAEDTGIYYCTRAYADYFDYWGQGTTLTVSS
VL: DIVLTQSPASLVVSLGQRATISCRASQSVSTSTYSYMHWYQQKPGQPPKILIKYASNLESGVPARFSGSGSGTDFTLNIHPVEEEDTATYYCQHSWEIPYTFGGGTKLEIKR
Turning to B1, the equilibrium dissociation constant (Kd) (in general, the free concentration of one partner at which half of the binding sites on the other are occupied at equilibrium, for simple one-to-one binding) is 2.9 nM; the dissociation rate constant (koff) (as a rule, the first-order rate constant of dissociation) worked out at 0.011 s⁻¹; the kon (in general, a measure of how fast the partners come together) was 3.8e+06 M⁻¹ s⁻¹.
